Reference: paper PMC9018702

What was measured:
MBP-TDR [1] = biological target: T1, MBP-TDR (Oryza sativa (ORF cloned from ZH11), UniProt Q6YUS3 1-552); experiment: EMSA; EMSA: 10 mM Tris-HCl pH 7.5, 50 mM KCl, 5 mM MgCl2, 1 mM DTT, 2.5% glycerol, 0.05% NP-40, 50 ng/uL poly(dI-dC), 10 fmol probe, 1 ug protein in 20 uL, room tempe
MBP-TDR [2] = biological target: T1, MBP-TDR; experiment: competition; 10-, 20-, 100-fold excess unlabeled probe eliminates shift; EMSA: 10 mM Tris-HCl pH 7.5, 50 mM KCl, 5 mM MgCl2, 1 mM DTT, 2.5% glycerol, 0.05% NP-40, 50 ng/uL poly(dI-dC), 10 fmol probe, 1 ug protein in 20 uL, room tempe

Binder	binding result (MBP-TDR [1])	binding result (MBP-TDR [2])
EAT1 promoter P1 probe (dsDNA) DNA 1: GCGTATCGTGGTCATCTGTCTATTTTACATGCACTTGTAGCTGGATAAA DNA 2: TTTATCCAGCTACAAGTGCATGTAAAATAGACAGATGACCACGATACGC	binds	–
EAT1 promoter P1 unlabeled competitor (dsDNA) DNA 1: GCGTATCGTGGTCATCTGTCTATTTTACATGCACTTGTAGCTGGATAAA DNA 2: TTTATCCAGCTACAAGTGCATGTAAAATAGACAGATGACCACGATACGC	–	binds
